The target in test [1] is T1, human LAG3 (expressed on cells) (human).
T1 construct: also called Hu LAG3; human LAG3 transfectants
T1 chain: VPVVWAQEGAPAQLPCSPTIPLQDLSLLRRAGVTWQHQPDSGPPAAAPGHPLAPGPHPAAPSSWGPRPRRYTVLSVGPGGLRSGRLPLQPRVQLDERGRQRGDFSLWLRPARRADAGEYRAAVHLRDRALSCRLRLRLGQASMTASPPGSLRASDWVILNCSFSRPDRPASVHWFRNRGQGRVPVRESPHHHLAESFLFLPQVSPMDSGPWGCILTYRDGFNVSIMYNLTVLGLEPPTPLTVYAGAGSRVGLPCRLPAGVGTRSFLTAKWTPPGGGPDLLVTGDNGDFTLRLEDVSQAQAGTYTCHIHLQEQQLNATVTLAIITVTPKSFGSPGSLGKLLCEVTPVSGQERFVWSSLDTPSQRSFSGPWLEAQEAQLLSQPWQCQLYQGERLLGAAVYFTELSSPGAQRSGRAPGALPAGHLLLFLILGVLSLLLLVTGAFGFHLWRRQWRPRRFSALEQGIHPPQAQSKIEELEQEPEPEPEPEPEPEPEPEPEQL
Description: cell-based KinExA; human LAG3 on BaF/3 cells; ratio to ADI-12126. For orientation: A kinetic exclusion assay measures how much of one partner remains free in solution.

In test [2] the target is T1, human LAG3 (expressed on cells). Description: cell-based KinExA; BaF/3 cells stably transfected with human LAG3; n = 1. The method, then: (§1) The affinities of the anti-LAG3 antibodies for human and cynomolgous monkey LAG3 were determined using a cell based Kinetic Exclusion Assay (KinExA). Cell based KinExA can be used to measure the affinity of a molecule for a binding partner on a cell surface (Rathanaswami et al. Analylitical Biochemistry 373(1): 52-60 (2008); Xie et al. J. Immunol. Methods 304 (1-2): 1-14 (2005)). In this case, BaF/3 cells were stably transfected with human or cynomolgus monkey LAG3 proteins. Transfected cells or the parental BaF/3 control cell line were grown to a density of 1.7×10⁶ to 3.2×10⁶ cells per ml at 37° C., 120 RPM, 5% CO₂, in 1×RPMI 1640 media with 10% FBS, 10 ng/ml IL-3, 5 μg/ml puromycin. Cells were concentrated, mixed with 15 pM or 150 pM antibody in cell culture media and incubated 24 to 48 hours at room temperature while rotating at 20 to 30 RPM. Cells were present at a top concentration of 2×10⁷ cells per ml (parental BaF/3 or cynomolgus LAG3 transfectants) or 1×10⁷ cells per ml (human LAG3 transfectants) and diluted in a 2-fold, 18 member series. The cells were pelleted and free antibody in the supernatant was measured using a KinExA 3200 instrument (Sapidyne, Idaho, USA). […] Antibody on the beads was labeled with 1.5 μg/ml Alexa Fluor® 647 conjugated goat anti-human (Fab′)₂ (Jackson ImmunoResearch Laboratories), washed and the fluorescent signal was read all using the KinExA™ 3200. […]

Test [3] shares this target. Kind of test: cell-based KinExA; BaF/3 cells stably transfected with human LAG3; n = 2. On the procedure: as §1
For test [4] the target is unchanged. Kind of test: cell-based KinExA; BaF/3 cells stably transfected with human LAG3; n = 3. The method, then: as §1
Test [5] has the same target. Kind of test: cell-based KinExA; BaF/3 cells stably transfected with human LAG3; average of n = 1-3. On the procedure: as §1
In test [6] the target is T2, human LAG3-His tagged recombinant protein (human).
T2 construct: also called human LAG3-His protein; recombinant human LAG3
Kind of test: SPR, Biacore T200; antibody captured, human LAG3-His as analyte, 1:1 Langmuir fit; n = 1. On the procedure:
(§2) Approximately 4000 RU of […], Fragment Specific (Jackson ImmunoResearch Catalog #115-006-071, Lot 81313) was immobilized via amine coupling chemistry onto a Series S CM4 sensor chip, catalog number BR-1005-34. Human anti-human LAG3 clones were injected over the immobilized anti-human surfaces at 1 ug/mL for a capture level of 40 RU. HBS-EP+ buffer (BR-1006-69) was used as the running buffer with a flow rate of 30 μL/min.
(§3) Varying concentrations of human LAG3-His protein ranging from 0.15 nM to 18.8 nM, at a flow rate of 40 μL/min were injected over the antibody surfaces. Following each injection cycle, the Series S CM4 chip surface was regenerated using one six second injection of 10 mM Glycine pH 1.5 solution followed by an injection of 12.5 mM NaOH solution at a flow rate of 60 μL/min.
(§4) Background subtraction binding sensorgrams were used for analyzing the rate constant of association (kₐ) and dissociation (kd), and the equilibrium dissociation constant KD. The resulting data sets were fitted with a 1:1 Langmuir Binding Model using the Biacore T200 evaluation software (version 2.0).
In general terms: Surface plasmon resonance follows binding to a sensor surface in real time, without labels.
Target sequence in this assay (P18627 23-450): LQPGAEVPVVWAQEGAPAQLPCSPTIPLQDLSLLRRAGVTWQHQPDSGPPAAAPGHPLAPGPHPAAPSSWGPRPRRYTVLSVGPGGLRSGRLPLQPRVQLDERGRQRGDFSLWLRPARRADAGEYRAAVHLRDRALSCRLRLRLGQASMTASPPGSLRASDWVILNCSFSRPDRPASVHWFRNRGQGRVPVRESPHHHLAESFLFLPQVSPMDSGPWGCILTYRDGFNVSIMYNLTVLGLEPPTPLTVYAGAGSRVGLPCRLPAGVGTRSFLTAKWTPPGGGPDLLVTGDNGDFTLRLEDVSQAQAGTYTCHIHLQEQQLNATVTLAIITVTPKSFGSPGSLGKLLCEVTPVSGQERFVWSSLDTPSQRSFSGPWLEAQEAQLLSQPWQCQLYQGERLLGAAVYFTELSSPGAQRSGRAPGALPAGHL

Test [7] concerns the target T2, human LAG3-His tagged recombinant …. Description: SPR, Biacore T200; antibody captured, human LAG3-His as analyte, 1:1 Langmuir fit; n = 2. On the procedure: as §2, §3, §4
Target sequence in this assay (P18627 23-450): as above
Test [8] has the same target. Description: SPR, Biacore T200; antibody captured, human LAG3-His as analyte, 1:1 Langmuir fit; average. The method, then:
as §2, §3, §4
Target sequence in this assay (P18627 23-450): as above

Test [9] has the same target. Kind of test: SPR, Biacore T200; fold against the parental antibody, as printed in this row. On the procedure: as §2, §3, §4

The record followed here is patent US20180369375A1 (Merck Sharp & Dohme, published 2018).

Usually Kd stands for the concentration at which binding is half-saturated.

B1: ADI-12126 M57G/M115L (antibody, V domains shown)
VH: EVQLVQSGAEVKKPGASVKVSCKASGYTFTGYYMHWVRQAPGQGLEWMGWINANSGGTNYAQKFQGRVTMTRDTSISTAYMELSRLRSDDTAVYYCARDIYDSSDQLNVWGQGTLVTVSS
VL: EIVLTQSPATLSLSPGERATLSCRASQSVSSYLAWYQQKPGQAPRLLIYDASNRATGIPARFSGSGSGTDFTLTISSLEPEDFAVYYCQQASIWPLTFGGGTKVEIKR
For the molecule B1, the “KD/KD ref (ref = ADI-12126)” value in [1] was determined as 0.8. Moreover, the Kd in test [2] came to 0.015 nM; in test [3] it was 0.025 nM; in test [4] it was 0.013 nM; in [5], 0.018 nM.

B2: ADI-12126 (Q1E, M57A, M115L) IgG4 S228P/Kappa (antibody, V domains shown)
VH: EVQLVQSGAEVKKPGASVKVSCKASGYTFTGYYMHWVRQAPGQGLEWMGWINANSGATNYAQKFQGRVTMTRDTSISTAYMELSRLRSDDTAVYYCARDIYDSSDQLNVWGQGTLVTVSS
VL: EIVLTQSPATLSLSPGERATLSCRASQSVSSYLAWYQQKPGQAPRLLIYDASNRATGIPARFSGSGSGTDFTLTISSLEPEDFAVYYCQQASIWPLTFGGGTKVEIKR
For B2, the Kd in test [6], in [7] and in test [8] was 0.013 nM throughout.

B3: ADI-12126 (Q1E, M57Y, M115L) IgG4 S228P/Kappa (antibody, V domains shown)
VH: EVQLVQSGAEVKKPGASVKVSCKASGYTFTGYYMHWVRQAPGQGLEWMGWINANSGYTNYAQKFQGRVTMTRDTSISTAYMELSRLRSDDTAVYYCARDIYDSSDQLNVWGQGTLVTVSS
VL: EIVLTQSPATLSLSPGERATLSCRASQSVSSYLAWYQQKPGQAPRLLIYDASNRATGIPARFSGSGSGTDFTLTISSLEPEDFAVYYCQQASIWPLTFGGGTKVEIKR
As to B3, the dissociation constant Kd in [6] was 0.032 nM; in test [7], 0.034 nM; in [8], 0.033 nM.

B4: ADI-12126 (Q1E, M57T, M115L) IgG4 S228P/Kappa (antibody, V domains shown)
VH: EVQLVQSGAEVKKPGASVKVSCKASGYTFTGYYMHWVRQAPGQGLEWMGWINANSGTTNYAQKFQGRVTMTRDTSISTAYMELSRLRSDDTAVYYCARDIYDSSDQLNVWGQGTLVTVSS
VL: EIVLTQSPATLSLSPGERATLSCRASQSVSSYLAWYQQKPGQAPRLLIYDASNRATGIPARFSGSGSGTDFTLTISSLEPEDFAVYYCQQASIWPLTFGGGTKVEIKR
B4: the figures for the dissociation constant Kd in test [6], in test [7] and in test [8] were 0.066 nM, 0.065 nM and 0.066 nM, respectively.

B5: ADI-12126 M57A/M115L (antibody, V domains shown)
VH: EVQLVQSGAEVKKPGASVKVSCKASGYTFTGYYMHWVRQAPGQGLEWMGWINANSGATNYAQKFQGRVTMTRDTSISTAYMELSRLRSDDTAVYYCARDIYDSSDQLNVWGQGTLVTVSS
VL: EIVLTQSPATLSLSPGERATLSCRASQSVSSYLAWYQQKPGQAPRLLIYDASNRATGIPARFSGSGSGTDFTLTISSLEPEDFAVYYCQQASIWPLTFGGGTKVEIKR
For the molecule B5, the “KD/KD ref (ref = ADI-12126)” value in [1] is 0.9. Also, the Kd worked out at 0.017 nM in [2], 0.03 nM in test [3], 0.017 nM in [4] and 0.021 nM in test [5].

B6: ADI-12126 (Q1E, M57S, M115L) IgG4 S228P/Kappa (antibody, V domains shown)
VH: EVQLVQSGAEVKKPGASVKVSCKASGYTFTGYYMHWVRQAPGQGLEWMGWINANSGSTNYAQKFQGRVTMTRDTSISTAYMELSRLRSDDTAVYYCARDIYDSSDQLNVWGQGTLVTVSS
VL: EIVLTQSPATLSLSPGERATLSCRASQSVSSYLAWYQQKPGQAPRLLIYDASNRATGIPARFSGSGSGTDFTLTISSLEPEDFAVYYCQQASIWPLTFGGGTKVEIKR
In the case of B6, the values for the Kd in [6], in [7] and in test [8] were 0.134 nM, 0.119 nM and 0.127 nM, respectively.

B7: ADI-12126 (Q1E, M57V, M115L) IgG4 S228P/Kappa (antibody, V domains shown)
VH: EVQLVQSGAEVKKPGASVKVSCKASGYTFTGYYMHWVRQAPGQGLEWMGWINANSGVTNYAQKFQGRVTMTRDTSISTAYMELSRLRSDDTAVYYCARDIYDSSDQLNVWGQGTLVTVSS
VL: EIVLTQSPATLSLSPGERATLSCRASQSVSSYLAWYQQKPGQAPRLLIYDASNRATGIPARFSGSGSGTDFTLTISSLEPEDFAVYYCQQASIWPLTFGGGTKVEIKR
In the case of B7, the Kd in test [6] amounted to 0.282 nM; in test [7] it was 0.25 nM; in test [8] it was 0.266 nM.

B8: ADI-12126 (Q1E, M57G, M115L) IgG4 S228P/Kappa (antibody, V domains shown)
VH: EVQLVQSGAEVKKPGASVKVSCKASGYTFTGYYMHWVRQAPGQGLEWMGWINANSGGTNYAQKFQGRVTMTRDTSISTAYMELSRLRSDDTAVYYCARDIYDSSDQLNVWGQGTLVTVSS
VL: EIVLTQSPATLSLSPGERATLSCRASQSVSSYLAWYQQKPGQAPRLLIYDASNRATGIPARFSGSGSGTDFTLTISSLEPEDFAVYYCQQASIWPLTFGGGTKVEIKR
notes: The parental residues are Q1, M57, M115
On to B8, for which the “Fold weaker than ADI-12126 (M57, M115) IgG4 S228P/Kappa” value in [9] was 4.6 fold. In addition, the dissociation constant (Kd) is 0.011 nM in [6], 0.01 nM in [7] and 0.01 nM in [8].
